Data from patent publication US7799901B2, “Modulators of the function of FAS receptors and other proteins” (Yeda Research and Development Co. Ltd., priority 1995, dated 2010).

Assays:
[1] = system: human embryonic kidney 293-EBNA cells; experiment: Cell death on overexpression of MACH isoforms in 293-EBNA cells; assay type: cell-based; conditions: β-galactosidase-expressing cells with apoptopic morphology, 20 h after transfection
Experimental: To explore the involvement of MACH in cell-death induction, the effect of overexpression of various MACH isoforms on cell viability was examined. The test was performed by transfecting MACH expression vectors together with a β-galactosidase expression vector as a transfection marker into human embryonic kidney 293-EBNA cells and breast carcinoma MCF7 cells.
(§1) In brief, 293-EBNA cells, MCF7 human breast carcinoma cells and HeLa HtTA-1 cells were grown in Dulbecco's modified Eagle's minimal essential medium supplemented with 10% fetal calf serum, nonessential amino acids, 100 U/ml penicillin and 100 μg/ml streptomycin. Cell tissue culture dishes (5×10^5 293-EBNA cells, 3×10^5 s MCF7 cells or 3×10^5 HeLa cells in 6-cm dishes) were transiently transfected, using the calcium phosphate precipitation method, with the cDNAs of the indicated proteins together with the β-galactosidase expression vector. In the experiments presented in FIGS. 14A-D and 15, each dish was transfected with 3.5 μg of the indicated MACH construct and 1.5 μg of pSV-β-gal. In the experiments presented in FIGS. 16A-D and 17-19, each dish was transfected with 2.5 μg of the indicated MACH or MORT1 construct (or, as control, empty vector) and 1.5 μg of pSV-β-gal. The cells were rinsed 6 to 10 h after transfection. The 293-EBNA and MCF7 cells were incubated for a further 18 h without additional treatment. The HeLa cells were incubated for 26 h after transfection and-then for 5 h in the presence of either anti-Fas.APO1 antibody (CH11, 0.5 μg/ml) or TNF (100 ng/ml), together with cycloheximide (10 μg/ml). The extent of cell death at the end of the incubation periods was assessed by determination of β-galactosidase expression, as described by Kumar et al, 1994.
In particular, FIGS. 14A-D show the morphology of human embryonic kidney 293-EBNA cells transiently expressing the indicated MACH isoforms. The arrows (FIG. 14B) point to apoptopic cells. Photographs were taken 26 h after transfection. […] Data are from three independent experiments with the 293-EBNA cells and two independent experiments with the MCF7 cells.

[2] = system: TNF-induced death of HeLa cells; experiment: Death of HeLa cells induced by TNF and cycloheximide; assay type: cell-based, human; conditions: TNF 100 ng/ml, cycloheximide 10 μg/ml
Experimental: as §1, with “1994. […]” for “1994.”

[3] = system: p55-R-induced cytotoxicity in 293-EBNA cells; experiment: Death of 293-EBNA cells induced by over-expression of p55-R; assay type: cell-based, human; conditions: co-transfection
Experimental: as §1, with “The HeLa cells were incubated for 26 h after transfection and-then for 5 h in the presence of either anti-Fas.APO1 antibody (CH11, 0.5 μg/ml) or TNF (100 ng/ml), together with cycloheximide (10 μg/ml).” left out, “1994. […]” for “1994.”
(§2) In particular, FIGS. 16A-D show morphology of 293-EBNA cells in which cell death was induced by transient expression of a chimera comprised of the extracellular domain of the p55-R (amino acids 1-168) fused to the transmembrane and intracellular domains of Fas/APO1 (amino acids 153-319) (p55-Fas chimera) (FIGS. 16A and 16B), or by expression of the p55-R (FIGS. 16C and 16D), and of cells that were protected from these cytotoxic effects by their simultaneous transfection with MACHα1 (C360S) (FIGS. 16B and 16D). […] FIG. 17 illustrates the quantification of death induced in 293-EBNA cells by their transfection with p55-Fas chimera or with p55-R, together with an empty vector, a MORT1 deletion mutant lacking the MACH-binding region (MORT1 (92-208)), or MACHα molecules containing a nonfunctional CED3/ICE region. […] Data are from at least two independent experiments and are expressed as in FIGS. 14A-F and 15.

[4] = system: Fas/APO1-induced death of HeLa cells; experiment: Death of HeLa cells expressing Fas/APO1 induced by anti-Fas/APO1 antibody and cycloheximide; assay type: cell-based, human; conditions: HeLa cells transiently expressing Fas/APO1, CH11 0.5 μg/ml, cycloheximide 10 μg/ml
Experimental: as §1
The HeLa cells were made responsive to Fas/APO1 by transient expression of this receptor. […] These protective effects indicate that MACHα is a necessary component of both the Fas/APO1- and the p55-R-induced signaling cascades for cell death.
In particular, FIGS. 16A-D show morphology of 293-EBNA cells in which cell death was induced by transient expression of a chimera comprised of the extracellular domain of the p55-R (amino acids 1-168) fused to the transmembrane and intracellular domains of Fas/APO1 (amino acids 153-319) (p55-Fas chimera) (FIGS. 16A and 16B), or by expression of the p55-R (FIGS. 16C and 16D), and of cells that were protected from these cytotoxic effects by their simultaneous transfection with MACHα1 (C360S) (FIGS. 16B and 16D). Photographs were taken 26 h after transfection. FIG. 17 illustrates the quantification of death induced in 293-EBNA cells by their transfection with p55-Fas chimera or with p55-R, together with an empty vector, a MORT1 deletion mutant lacking the MACH-binding region (MORT1 (92-208)), or MACHα molecules containing a nonfunctional CED3/ICE region. […] Data are from at least two independent experiments and are expressed as in FIGS. 14A-F and 15.

[5] = system: Fas/APO1 cytotoxicity (p55-Fas chimera) in 293-EBNA cells; assay type: cell-based, human; conditions: co-transfection
Experimental: as §1, with “The HeLa cells were incubated for 26 h after transfection and-then for 5 h in the presence of either anti-Fas.APO1 antibody (CH11, 0.5 μg/ml) or TNF (100 ng/ml), together with cycloheximide (10 μg/ml).” left out, “1994. […]” for “1994.”
as §2

[6] = system: FAS-R mediated cell death in HeLa cells; experiment: Anti-FAS-R antibody (CH-11) induced death of HeLa cells co-expressing FAS-R, neutral-red uptake; assay type: cell-based; conditions: co-expression with human FAS-R in HeLa HtTA-1; CH-11 antibody plus 10 μg/ml cycloheximide
From the text: In another set of experiments to analyze the region of the MORT-1 protein involved in the binding to the FAS-IC, the following proteins were expressed transiently in HeLa cells that contain a tetracycline-controlled transactivator (HtTA-1), using a tetracycline-controlled expression vector (pUHD10-3): Human FAS-R alone; Human FAS-R as well as the N-terminal part of MORT-1 (amino acids 1-117, the “MORT-1 head”); Human FAS-R as well as the C-terminal part of MORT-1, which contains its ‘death domain’ homology region (amino acids 130-245, the “MORT-1 DD”); FLAG-55.11 (amino acids 309-900 of protein 55.11 fused at the N-terminus to the FLAG octapeptide, the protein 55.11 being a p55-IC-specific binding protein. Twelve hours after transfection, the cells were trypsinized and re-seeded at a concentration of 30,000 cells/well. After 24 hrs further incubation, the cells were treated for 6 hrs with a monoclonal antibody against the extracellular domain of FAS-R (monoclonal antibody CH-11, Oncor, Gaithersburg, Md., USA) at various concentrations (0.001-10 μg/ml monoclonal antibody), in the presence of 10 μg/ml cycloheximide. Cell viability was then determined by the neutral-red uptake assay and the results were presented in terms of % viable cells as compared to cells that had been incubated with cycloheximide alone (in the absence of anti-FAS-R monoclonal antibody CH-11). […]

FAS-IC = target: T1, FAS-IC (Homo sapiens, UniProt P25445); experiment: Two-hybrid test (FIG. 1), binding of MORT-1 fragments to FAS-IC
T1 construct: the FAS-IC extends-from amino acid residues 175-319 of the intact FAS-R; expressed in transfected cells; host or cells: SFY526 yeast
T1 sequence (P25445 191-335): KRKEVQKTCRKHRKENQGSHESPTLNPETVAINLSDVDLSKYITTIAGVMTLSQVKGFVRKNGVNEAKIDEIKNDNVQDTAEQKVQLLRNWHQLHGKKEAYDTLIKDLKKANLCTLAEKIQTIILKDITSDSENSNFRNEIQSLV
From the text: To isolate proteins interacting with the intracellular domain of the FAS-R, the yeast two-hybrid system was used (Fields and Song, 1989). […] In this system, the genes for the candidate interacting proteins are cloned into separate expression vectors. In one expression vector, the sequence of the one candidate protein is cloned in phase with the sequence of the GAL4 DNA-binding domain to generate a hybrid protein with the GAL4 DNA-binding-domain, and in the other vector, the sequence of the second candidate protein is cloned in phase with the sequence of the GAL4 activation domain to generate a hybrid protein with the GAL4-activation domain. The two hybrid vectors are then co-transformed into a yeast host strain having a lacZ or HIS3 reporter gene under the control of upstream GAL4 binding sites. Only those transformed host cells (cotransformants) in which the two hybrid proteins are expressed and are capable of interacting with each other, will be capable of expressing the reporter gene. In the case of the lacZ reporter gene, host cells expressing this gene will become blue in color when X-gal is added to the cultures. […]
In FIG. 1, there is depicted the interaction of the proteins encoded by the Gal4 DNA binding domain and activation-domain constructs (pGBT9 and pGAD-GH) within transfected SFY526 yeasts as assessed by β-galactosidase expression filter assay. […]

MORT-1 = target: T2, MORT-1 (Homo sapiens, UniProt Q13158, G32V); experiment: Two-hybrid test (FIG. 1), binding to full-length MORT-1; design: expressed in transfected cells; host or cells: SFY526 yeast
T2 sequence (Q13158 with tags, fused parts or gaps G32V): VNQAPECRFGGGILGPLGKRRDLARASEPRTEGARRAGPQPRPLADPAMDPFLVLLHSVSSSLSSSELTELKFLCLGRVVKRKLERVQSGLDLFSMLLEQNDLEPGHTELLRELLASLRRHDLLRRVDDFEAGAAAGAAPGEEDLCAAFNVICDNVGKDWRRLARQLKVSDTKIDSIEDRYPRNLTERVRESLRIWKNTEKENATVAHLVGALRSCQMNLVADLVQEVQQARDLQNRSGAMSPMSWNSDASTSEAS
From the text: To isolate proteins interacting with the intracellular domain of the FAS-R, the yeast two-hybrid system was used (Fields and Song, 1989). […] In this system, the genes for the candidate interacting proteins are cloned into separate expression vectors. In one expression vector, the sequence of the one candidate protein is cloned in phase with the sequence of the GAL4 DNA-binding domain to generate a hybrid protein with the GAL4 DNA-binding-domain, and in the other vector, the sequence of the second candidate protein is cloned in phase with the sequence of the GAL4 activation domain to generate a hybrid protein with the GAL4-activation domain. The two hybrid vectors are then co-transformed into a yeast host strain having a lacZ or HIS3 reporter gene under the control of upstream GAL4 binding sites. Only those transformed host cells (cotransformants) in which the two hybrid proteins are expressed and are capable of interacting with each other, will be capable of expressing the reporter gene. In the case of the lacZ reporter gene, host cells expressing this gene will become blue in color when X-gal is added to the cultures.
(b) retransforming the plasmid DNA and original FAS-IC hybrid plasmid and control plasmids described in (a) into yeast host cells of strain SFY526 and determining the LACZ^+ activity (effectivity of β-gal formation, i.e., blue color formation).
In FIG. 1, there is depicted the interaction of the proteins encoded by the Gal4 DNA binding domain and activation-domain constructs (pGBT9 and pGAD-GH) within transfected SFY526 yeasts as assessed by β-galactosidase expression filter assay. The DNA-binding-domain constructs included four constructs of the human Fas-IC, four constructs of the mouse Fas-IC including two full-length constructs having […] or Ile to Ala replacement mutations at position 225 (I225N and I225A, respectively), and three MORT-1 constructs, all of which are shown schematically on the left hand side of FIG. 1. […]

B1: MACHα2: MACH isoform, cDNA SEQ ID NO: 17, amino acid SEQ ID NO: 18 (protein)
chain: MDFSRNLYDIGEQLDSEDLASLKFLSLDYIPQRKQEPIKDALMLFQRLQEKRMLEESNLSFLKELLFRINRLDLLITYLNTRKEEMERELQTPGRAQISAYRVMLYQISEEVSRSELRSFKFLLQEEISKCKLDDDMNLLDIFIEMEKRVILGEGKLDILKRVCAQINKSLLKIINDYEEFSKGEELCGVMTISDSPREQDSESQTLDKVYQMKSKPRGYCLIINNHNFAKAREKVPKLHSIRDRNGTHLDAGALTTTFEELHFEIKPHDDCTVEQIYEILKIYQLMDHSNMDCFICCILSHGDKGIIYGTDGQEAPIYELTSQFTGLKCPSLAGKPKVFFIQACQGDNYQKGIPVETDSEEQPYLEMDLSSPQTRYIPDEADFLLGMATVNNCVSYRNPAEGTWYIQSLCQSLRERCPRGDDILTILTEVNYEVSNKDDKKNMGKQMPQPTFTLRKKLVFPSD
[1]
  cell death of transfected 293-EBNA cells: massive cell death

B2: MORT1 (92-208) (protein, UniProt Q13158 92-208, looked up, fragment)
chain: PGEEDLCAAFNVICDNVGKDWRRLARQLKVSDTKIDSIEDRYPRNLTERVRESLRIWKNTEKENATVAHLVGALRSCQMNLVADLVQEVQQARDLQNRSGAMSPMSWNSDASTSEAS
[2]
  protection against death induced by TNF and cycloheximide: protection was also observed
[3]
  protection against p55-R-induced cytotoxicity: protection was also observed
[4]
  protection against death induced by anti-Fas/APO1 antibody and cycloheximide: protection was also observed
[4]; listed as MORT1DD (92-208)
  protection against death induced by anti-Fas/APO1 antibody and cycloheximide: prevention
[5]
  protection against Fas/APO1 cytotoxicity (p55-Fas chimera): protection was also observed

B3: fragment corresponding to residues 130-245: C-terminal part of MORT-1 containing its death domain homology region, amino acids 130-245 (protein)
chain: FEAGAAAGAAPGEEDLCAAFNVICDNVGKDWRRLARQLKVSDTKIDSIEDRYPRNLTERVRESLRIWKNTEKENATVAHLVGALRSCQMNLVADLVQEVQQARDLQNRSGAMSPMS
[6]
  effect on FAS-induced (FAS-R mediated) cell death: strongly interferes
FAS-IC
  binding to FAS-IC / FAS-R in two-hybrid test: binds
MORT-1
  binding to full-length MORT-1 in two-hybrid test: does not bind
